Source: article PMC11768756

Target: MK-1654 IgG (human)
Assay: SPR; Biacore 8K+; MK-1654 IgG captured on a Protein A chip (about 110 RU); 1A6 or 1D4 Fab flowed at 0.4-128 nM, 60 s contact and 60 s dissociation, 30 µL/min; global 1:1 fit; KD = koff/kon; averages of three runs

MK-1654 IgG (human), sequence (heavy, as listed by the source, chain 1 of 2): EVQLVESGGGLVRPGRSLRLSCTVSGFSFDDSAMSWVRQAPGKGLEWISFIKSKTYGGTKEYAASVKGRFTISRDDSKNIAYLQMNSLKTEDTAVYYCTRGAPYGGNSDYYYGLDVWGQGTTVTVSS
MK-1654 IgG (human), sequence (light, as listed by the source, chain 2 of 2): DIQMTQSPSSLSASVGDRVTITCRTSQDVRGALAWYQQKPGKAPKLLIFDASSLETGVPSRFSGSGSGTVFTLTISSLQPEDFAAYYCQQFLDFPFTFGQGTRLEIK

B1: 1D4 anti-idiotypic Fab (Fab, V domains shown)
VH: QVQLVESGGGLVQPGGSLRLSCAASGFTFSSSGLHWVRQAPGKGLEWVSGIDSSSSTTYYADSVKGRFTISRDNSKNTLYLQMNSLRAEDTAVYYCARYYFDVWGQGTLVTVSS
VL: DIELTQPPSVSVAPGQTARISCSGDSIGTYAYWYQQKPGQAPVLVIYADDNRPSGIPERFSGSNSGNTATLTISGTQAEDEADYYCSSWATDNAPVFGGGTKLTVL
For B1, which Kd is on record?
The Kd was 3.75 nM.

What about the koff of the same binder?
Its koff is 0.013 s⁻¹.

What about the kon of the same binder?
The kon was 3.5e+06 M⁻¹ s⁻¹.

B2: 1A6 anti-idiotypic Fab (Fab, V domains shown)
VH: QVQLVESGGGLVQPGGSLRLSCAASGFTFSSYAMNWVRQAPGKGLEWVSLISGSGSSTYYADSVKGRFTISRDNSKNTLYLQMNSLRAEDTAVYYCARFHTHGGYFDIWGQGTLVTVSS
VL: DIALTQPASVSGSPGQSITISCTGTSSDIGAYTYGSWYQQHPGKAPKLMIYGVNNRPSGVSNRFSGSKSGNTASLTISGLQAEDEADYYCASFDFSVSGVVFGGGTKLTVL
Which Kd does the source give for B2 here?
The Kd was 0.94 nM.

And the koff?
The koff was 0.00628 s⁻¹.

What about the kon of the same binder?
The kon was 6.67e+06 M⁻¹ s⁻¹.
